Assay results as given in patent publication US20090155236A1, “Peptide sequence for modulation of delta protein kinase c” (NATIONAL INSTITUES OF HEALTH (NIH), U.S. DEPT OF HEALTH AND …, priority 2004, published 2009).

Experiments:
delta PKC = delta PKC (Rattus norvegicus, UniProt P09215); assay: ELISA of annexin V peptide variants fused to alkaline phosphatase on immobilized delta PKC; type: binding; set-up: key to Binding: +++: Relative binding is shown in Table 1 by “+” and “−” indicators; ++: Relative binding is shown in Table 1 by “+” and “−” indicators; Relative binding is shown in Table 1 by “+” and “−” indicators; Relative binding is shown in Table 1 by “+” and “−” indicators; −−−: Relative binding is shown in Table 1 by “+” and “−” indicators; settings: Table 1; for Binding: relative binding of peptide-alkaline phosphatase fusion to immobilized delta PKC
Chain of delta PKC (P09215 with tags, fused parts or gaps with the stated changes limits assumed): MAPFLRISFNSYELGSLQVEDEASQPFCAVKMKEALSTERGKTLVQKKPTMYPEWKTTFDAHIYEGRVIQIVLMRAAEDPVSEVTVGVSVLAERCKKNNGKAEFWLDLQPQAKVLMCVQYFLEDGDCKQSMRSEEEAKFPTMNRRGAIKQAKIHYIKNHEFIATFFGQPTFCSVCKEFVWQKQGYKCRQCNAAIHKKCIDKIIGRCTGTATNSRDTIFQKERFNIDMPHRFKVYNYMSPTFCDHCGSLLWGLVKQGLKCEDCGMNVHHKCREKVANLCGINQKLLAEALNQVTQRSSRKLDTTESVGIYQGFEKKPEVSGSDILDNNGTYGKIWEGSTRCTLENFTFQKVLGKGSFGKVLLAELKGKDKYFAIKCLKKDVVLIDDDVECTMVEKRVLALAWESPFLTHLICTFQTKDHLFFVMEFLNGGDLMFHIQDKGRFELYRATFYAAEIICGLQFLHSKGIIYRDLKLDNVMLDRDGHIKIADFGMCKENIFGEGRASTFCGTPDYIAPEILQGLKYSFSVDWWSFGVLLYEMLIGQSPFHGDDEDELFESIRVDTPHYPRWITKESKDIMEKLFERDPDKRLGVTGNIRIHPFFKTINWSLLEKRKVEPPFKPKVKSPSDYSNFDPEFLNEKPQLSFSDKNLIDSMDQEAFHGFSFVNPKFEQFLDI
Protocol: Binding of the annexin V peptide (SEQ ID NO: 1) and of variants of the peptide to delta PKC was examined using an ELISA protocol, detailed in Example 6. Delta PKC (SEQ ID NO:3) was immobilized in the wells of a microtiter plate and then incubated with the annexin V peptide conjugated to alkaline phosphatase or with variants of the annexin V peptide, also conjugated to alkaline phosphatase.
Recombinant delta PKC protein (SEQ ID NO:3) was bound to a Falcon plate for 1 hour at room temperature in carbonate buffer pH 9.6. A 1:10-1:100 dilution of PKC enzyme from glycerol stock or 100 μg was prepared. β-mercaptoethanol at 1 μL/mL was added into the PKC. Each well contained approximately 100 μL of PKC; some wells without PKC were present to correct for non-specific binding.
Next, all wells were blocked with 200 μL of super block or 0.5% milk in carbonate buffer. Blocking was done twice, for 5 minutes each time.
Without washing the wells, 100 μL of a peptide fused to alkaline phosphatase protein (i.e., peptide-alkaline phosphatase fusion) was added to the wells, and incubated for 30 minutes at 37° C. The wells were then washed three times, for 2 minutes each time, with TBS/Tween (0.1%). The wells were allowed to develop overnight before reading absorbance at 405 nm.

isolated rat hearts = assay: Ex vivo ischemia/reperfusion in isolated rat hearts; settings: administered after ischemia during the initial 10 minutes of reperfusion
Protocol: The physiologic impact of disruption of the delta PKC-annexin V complex was evaluated in an ex vivo ischemia/reperfusion study using the annexin V peptide, TAT-AnxV, and its mutant, TAT-AnxV(R→E). As described in Example 7, isolated rat hearts were treated with TAT-AnxV or TAT-AnxV(R→E) for 10 minutes prior to induction of an ischemic episode. The ischemic episode lasted for 30 minutes, at which time flow to the heart was returned for 60 minutes (reperfusion). After the reperfusion period, cardiac effluent was collected and analyzed for creatine phosphokinase (CPK). The hearts were stained and visually inspected for live and dead tissue. Infarct size was measured by taking the average of the dead (white) tissue on both sides of the tissue slice.
A similar study was conducted, except rather than pretreating the isolated hearts with the annexin V peptide, the peptide was administered after the ischemic event and during the initial 10 minutes of the reperfusion period. Hearts were similarly treated with the mutant peptide, TAT-AnxV(R→E).
Rats were anesthetized and their hearts were rapidly removed and cannulated via the aorta for retrograde perfusion (Colbert, M. et al., J. Clin. Invest., 100:1958 (1997)). The hearts were left untreated, or were pretreated with the annexin V peptide, conjugated to TAT, (TAT-AnxV, SEQ ID NO:29) or with its mutant, TAT-AnxV(R→E) (SEQ ID NO:31), for 10 minutes prior to a 30 minutes of ischemia. Ischemia was induced by interrupting flow for 30 minutes and then reestablishing flow for 60 minutes (reperfusion). Cardiac effluent was collected for 15 minutes after reperfusion and assayed for creatine phosphokinase (CPK) using a Sigma kit. Hearts were stained with 2,3,5-triphenyltetrazolium chloride ([…]) to visualize live tissue (red) and dead tissue (white), and infarct size was measured by taking the average of the white area on both sides of the tissue slice (n=3, p<0.05). Results are shown in FIGS. 9A-9B and FIGS. 10A-10B.

[1] = target: T1, delta PKC-annexin V complex (Cricetulus griseus, UniProt A0A8C2N0P5+G3I5A4); assay: Dissociation of delta PKC-annexin V complex in CHO cells; type: cell-based; settings: CHO cells pretreated with the agent, then 10 nM PMA, FIG. 7
T1 construct: endogenous in cells; host or cells: CHO cells
T1 sequence (A0A8C2N0P5 1-676): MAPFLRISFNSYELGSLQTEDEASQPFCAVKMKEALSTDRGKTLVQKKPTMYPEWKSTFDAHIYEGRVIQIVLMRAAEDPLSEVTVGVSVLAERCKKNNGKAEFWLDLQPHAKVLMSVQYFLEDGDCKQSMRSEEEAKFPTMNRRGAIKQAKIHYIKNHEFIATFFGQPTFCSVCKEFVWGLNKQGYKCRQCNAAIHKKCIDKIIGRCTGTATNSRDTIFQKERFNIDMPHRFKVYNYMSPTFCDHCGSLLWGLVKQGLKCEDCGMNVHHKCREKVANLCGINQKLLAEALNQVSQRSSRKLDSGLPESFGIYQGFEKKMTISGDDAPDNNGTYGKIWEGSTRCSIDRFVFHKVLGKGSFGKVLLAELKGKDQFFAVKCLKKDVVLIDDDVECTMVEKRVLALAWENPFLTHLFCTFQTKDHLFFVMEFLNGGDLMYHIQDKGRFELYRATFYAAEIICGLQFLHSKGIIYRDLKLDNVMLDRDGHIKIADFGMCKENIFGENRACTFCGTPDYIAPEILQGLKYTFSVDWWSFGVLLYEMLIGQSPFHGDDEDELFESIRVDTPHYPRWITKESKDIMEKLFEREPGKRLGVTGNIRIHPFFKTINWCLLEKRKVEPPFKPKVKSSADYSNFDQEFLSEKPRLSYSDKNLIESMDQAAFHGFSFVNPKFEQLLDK
T1 sequence (G3I5A4 1-321): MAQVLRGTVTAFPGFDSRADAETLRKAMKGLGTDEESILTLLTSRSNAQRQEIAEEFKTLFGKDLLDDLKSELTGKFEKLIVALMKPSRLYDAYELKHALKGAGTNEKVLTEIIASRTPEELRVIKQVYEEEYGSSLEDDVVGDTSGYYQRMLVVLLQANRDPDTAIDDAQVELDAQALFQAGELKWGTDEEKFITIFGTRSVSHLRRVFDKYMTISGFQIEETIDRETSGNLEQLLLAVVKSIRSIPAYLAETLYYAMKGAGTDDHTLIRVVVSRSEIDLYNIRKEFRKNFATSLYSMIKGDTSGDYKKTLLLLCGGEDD
Protocol: To determine the requirements for complex disassociation and subsequent translocation, PMA-induced formation of the delta PKC-annexin V complex was conducted under energetically limiting conditions caused by ATP depletion using 2-deoxyglucose (Kondo, T. et al., J. Lab. Clin. Med., 94:617-23 (1979)), and with cytoskeletal perturbations by pretreatment with actin […] agent cytochalasin D or microtubule-destabilizing agent nocodazole.
CHO cells were pretreated with one of the following: (1) 2-deoxyglucose (20 mM) for 4 hours in a glucose-free buffer; (2) nocodazole (10 μM) for 2 hours; or (3) cytochalasin D (2 μM) for 1 hour. The cells were then treated with phorbol myristate acetate (PMA; 10 nM) for times of between 30 seconds to 5 minutes. After the lapsed time, the cells were washed with cold PBS, and homogenized on ice with trituration in homogenization buffer (20 mM Tris pH 7.4, 2 mM EDTA, 10 mM EGTA, 0.25M sucrose, 12 mM β-mercaptoethanol, and protease inhibitor cocktail (Sigma), 0.1% formaldehyde. After 30 min at 4° C., the lysates were quenched with 0.14M glycine for 20 min at 4° C., and samples spun at 14K rpm at 4° C. The supernatant was incubated with 1 μg anti-delta PKC antibody (Santa Cruz Biotechnology, Inc., Santa Cruz, Calif.) for 1 hour, then with proteinG beads (Invitrogen Corporation) for 3 hours at 4° C. The beads where then washed with wash buffer (20 mM Tris pH 7.5, 2 mM EDTA, 100 mM NaCl, 12 mM β-mercaptoethanol, 0.1% Triton), and separated on 7.5% SDS-PAGE, transferred to nitrocellulose, and probed with anti-annexin V (Santa Cruz Biotechnology, Inc., Santa Cruz, Calif.), followed by visualization by ECL Western blotting.

[2] = target: T2, annexin V and delta PKC interaction (Homo sapiens, UniProt Q05655); assay: Cross-linking immuno-precipitation of delta PKC probed with anti-annexin V in cardiac myocytes; type: cell-based
T2 construct: endogenous in cells; host or cells: cardiomyocytes
T2 sequence (Q05655 whole entry): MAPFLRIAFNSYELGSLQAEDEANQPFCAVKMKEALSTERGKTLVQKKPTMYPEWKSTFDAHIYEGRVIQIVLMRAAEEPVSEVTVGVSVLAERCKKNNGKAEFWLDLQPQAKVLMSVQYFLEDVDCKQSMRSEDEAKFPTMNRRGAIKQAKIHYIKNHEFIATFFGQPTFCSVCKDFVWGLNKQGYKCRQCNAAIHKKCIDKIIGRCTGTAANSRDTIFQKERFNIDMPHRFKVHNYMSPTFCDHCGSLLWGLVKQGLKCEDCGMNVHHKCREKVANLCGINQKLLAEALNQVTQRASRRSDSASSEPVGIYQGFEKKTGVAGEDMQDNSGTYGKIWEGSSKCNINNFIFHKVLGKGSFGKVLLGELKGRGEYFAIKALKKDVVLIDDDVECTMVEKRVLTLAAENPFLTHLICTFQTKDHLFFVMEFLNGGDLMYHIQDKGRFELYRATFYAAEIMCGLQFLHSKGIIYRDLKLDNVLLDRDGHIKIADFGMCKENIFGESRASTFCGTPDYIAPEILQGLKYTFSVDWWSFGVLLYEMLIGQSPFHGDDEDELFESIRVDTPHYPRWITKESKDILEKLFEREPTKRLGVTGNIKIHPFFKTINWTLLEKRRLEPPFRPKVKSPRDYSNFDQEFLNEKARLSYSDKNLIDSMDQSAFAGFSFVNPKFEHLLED
Protocol: Example 4 describes a study where cardiac myocytes were stimulated with a selected agent and then immuno-precipitated with anti-delta PKC after cross-linking. The cell lysates were then probed with anti-annexin V and visualized with ECL Western blotting. […] The stimulation agent was applied to the cells for times of between 30 seconds to 20 minutes, prior to lysing.
Cardiomyocytes were treated with phorbol 12-myristate 13-acetate (PMA; 10 nM), hydrogen peroxide (H2O2; 5 mM), JTV-519, or delta V1-1 peptide (1 μM) and JTV-519 (1 μM), for times of between 30 seconds to 5 minutes. After the lapsed time, the cells were washed with cold PBS, and homogenized on ice with trituration in homogenization buffer (20 mM Tris pH 7.4, 2 mM EDTA, 10 mM EGTA, 0.25M sucrose, 12 mM O-mercaptoethanol, and protease inhibitor cocktail (Sigma), 0.1% formaldehyde. After 30 min at 4° C., the lysates were quenched with 0.14M glycine for 20 min at 4° C., and samples spun at 14K rpm at 4° C. The supernatant was incubated with 1 μg anti-delta PKC antibody (Santa Cruz Biotechnology, Inc., Santa Cruz, Calif.) for 1 hour, then with proteinG beads (Invitrogen Corporation) for 3 hours at 4° C. The beads where then washed with wash buffer (20 mM Tris pH 7.5, 2 mM EDTA, 100 mM NaCl, 12 mM β-mercaptoethanol, 0.1% Triton), and separated on 7.5% SDS-PAGE, transferred to nitrocellulose, and probed with anti-annexin V (Santa Cruz Biotechnology, Inc., Santa Cruz, Calif.), followed by visualization by ECL Western blotting.

[3] = target: T3, delta PKC/annexin V interaction (Cricetulus griseus, UniProt A0A8C2N0P5); assay: Cross-linking co-immunoprecipitation of annexin V and delta PKC in CHO cells; type: cell-based
T3 construct: endogenous in cells; host or cells: CHO cells
T3 sequence (A0A8C2N0P5 1-676): as the sequence (A0A8C2N0P5 1-676) above
T3 sequence (G3I5A4 1-321 partner): as the sequence (G3I5A4 1-321) above
Protocol: A similar study was conducted to further evaluate the in vitro, intracellular interactions of delta PKC and annexin V. Cellular interactions of delta PKC/annexin V interaction in CHO cells were stabilized with a cross-linking agent, after stimulation with 10 nM PMA. The complexes formed with delta PKC were then immuno-precipitated and tested for the presence of annexin V. The SDS-PAGE gel is shown in FIG. 6A and a corresponding graph quantifying percent association of annexin V and delta PKC as a function of time is shown in FIG. 6B. […] The interaction is relatively short-lived, and the proteins disassociated after 1 minute of stimulation.
The effect of JTV-519, an activator of delta PKC, on the association of annexin V and delta PKC was also evaluated in this study. Cells were treated with JTV-519, and the association of annexin V and delta PKC was examined using the co-immunoprecipitation procedure described above. […] PMA caused the disassociation of the JTV-induced complex at 30 seconds, the time of maximal PMA-induced association. […] Whereas the cytosolic fraction of the cells contained a steady low level of the complex, the majority of the complex was found in the particulate fraction of the cells, and disappearance from the particulate fraction followed the same time-course as observed in whole cell lysates (compare FIG. 6D bottom panel with FIG. 6B).

[4] = cardiac myocytes stimulated with the agent, FIG. 5

MRAAENP (variant of SEQ ID NO1) [SEQ ID NO:13]
binding to delta PKC (delta PKC): bind to delta PKC | Binding (delta PKC): +++

LQANRDPD (listed as Homo sapiens) [SEQ ID NO:1, peptide from annexin V, residues 157-164]
infarct size (isolated rat hearts; FIG. 10A): no cardioprotective effect was observed | creatine phosphokinase (CPK) released (isolated rat hearts; FIG. 10B): does not confer a cardioprotective effect

C=C1[C@@H](C)[C@H]2[C@H](Cc3ccccc3)NC(=O)[C@]23[C@H](OC(C)=O)/C=C/[C@@](C)(O)C(=O)[C@@H](C)C/C=C/[C@H]3[C@@H]1O [cytochalasin D]
disassociation of the delta PKC-annexin V complex [1]: did not affect the profile of disassociation

delta V1-1 peptide: amino acid sequence from the first variable region of delta PKC (residues 8-17); peptide inhibitor of delta PKC (SFNSYELGS; listed as Rattus norvegicus)
interaction of annexin V and delta PKC ([2]; cardiac myocytes pre-treated with the peptide for 20 minutes, then JTV-519 for 20 minutes, FIG. 5 Lane 10): blocked

OO [H2O2, hydrogen peroxide]
interaction of annexin V and delta PKC [2, 4]: stimulated delta PKC to a greater extent than exposure for 2 minutes

MRAAADP (variant of SEQ ID NO1) [SEQ ID NO:16]
Binding (delta PKC): −−−

MQAARDP (variant of SEQ ID NO1) [SEQ ID NO:12]
binding to delta PKC (delta PKC): bind to delta PKC | Binding (delta PKC): +++

COC(=O)Nc1nc2ccc(C(=O)c3cccs3)cc2[nH]1 [nocodazole]
disassociation of the delta PKC-annexin V complex [1]: substantial levels of the complex even after 5 minutes

MRAAEDP (variant of SEQ ID NO1) [SEQ ID NO:18]
Binding (delta PKC): ++

MRAAQDP (variant of SEQ ID NO1) [SEQ ID NO:14]
binding to delta PKC (delta PKC): bind to delta PKC | Binding (delta PKC): ++

O=CC[C@@H](O)[C@H](O)[C@H](O)CO [2-deoxyglucose]
disassociation of the delta PKC-annexin V complex [1]: substantial levels of the complex even after 5 minutes

CCCCCCCCCCCCCC(=O)O[C@@H]1[C@@H](C)[C@@]2(O)[C@@H](C=C(CO)C[C@]3(O)C(=O)C(C)=C[C@@H]23)[C@@H]2C(C)(C)[C@]12OC(C)=O [PMA, phorbol 12-myristate 13-acetate]
interaction of annexin V and delta PKC [2, 4]: Annexin V interacts with delta PKC early after stimulation | time of stimulation after which annexin V and delta PKC disassociated ([3]; 10 nM PMA, FIGS. 6A-6B): 1 min | time to induction of annexin V and delta PKC interaction ([3]; 10 nM PMA, FIGS. 6A-6B): ≤ 30 s | cellular localization of the delta PKC-annexin V complex ([3]; soluble versus particulate fraction, FIG. 6D): maximum complex accumulation in the particulate fraction

MEAAEDP (variant of SEQ ID NO1) [SEQ ID NO:15]
binding to delta PKC (delta PKC): bind to delta PKC | Binding (delta PKC): +

MAAAEDP (variant of SEQ ID NO1) [SEQ ID NO:17]
Binding (delta PKC): −
